The numbers were not newly measured in publication PMC6258349, which cites them from elsewhere.

Read-outs that look alike come from different tables or passages of the source.

Data set [1] concerns the target chaperone-adhesin FimC-FimH (Escherichia coli) (UniProt P31697).
For data set [2] the target is unchanged. The source holds these as a separate data set.

Sequence of UniProt P31697 (P31697 37-241, chain 1 of 2): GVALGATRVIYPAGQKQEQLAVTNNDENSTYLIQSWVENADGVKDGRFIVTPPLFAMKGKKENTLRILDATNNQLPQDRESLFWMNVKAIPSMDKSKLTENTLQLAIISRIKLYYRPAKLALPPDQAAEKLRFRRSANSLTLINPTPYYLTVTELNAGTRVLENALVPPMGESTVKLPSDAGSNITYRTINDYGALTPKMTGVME
Sequence of UniProt P31697 (P08191 22-300, chain 2 of 2, further chain): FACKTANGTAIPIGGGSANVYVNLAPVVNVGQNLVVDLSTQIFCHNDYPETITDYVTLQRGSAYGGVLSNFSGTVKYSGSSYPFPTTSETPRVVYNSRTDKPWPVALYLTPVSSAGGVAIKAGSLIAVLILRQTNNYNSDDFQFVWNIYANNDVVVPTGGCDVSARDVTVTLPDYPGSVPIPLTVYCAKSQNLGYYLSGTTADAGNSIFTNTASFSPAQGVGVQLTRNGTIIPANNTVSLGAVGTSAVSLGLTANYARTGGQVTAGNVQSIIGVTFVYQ

As to FimD usher CTD (from UniProt P30130), the dissociation constant Kd in data set [1] was 40 nM. As to FimD usher NTD (from UniProt P30130), the Kd in data set [2] was 389 nM.

In general, Kd refers to the equilibrium constant for the complex coming apart.
